# Measured values reported in PMC5414002 (mBio, 2017).
# B1: Full-length, untagged wild-type Escherichia coli FtsZ (natural protein, UniProt P0A9A6 1-383, looked up)
# chain: MFEPMELTNDAVIKVIGVGGGGGNAVEHMVRERIEGVEFFAVNTDAQALRKTAVGQTIQIGSGITKGLGAGANPEVGRNAADEDRDALRAALEGADMVFIAAGMGGGTGTGAAPVVAEVAKDLGILTVAVVTKPFNFEGKKRMAFAEQGITELSKHVDSLITIPNDKLLKVLGRGISLLDAFGAANDVLKGAVQGIAELITRPGLMNVDFADVRTVMSEMGYAMMGSGVASGEDRAEEAAEMAISSPLLEDIDLSGARGVLVNITAGFDLRLDEFETVGNTIRAFASDNATVVIGTSLDPDMNDELRVTVVATGIGMDKRPEITLVTNKQVQQPVMDRYQQHGMAPLTQEQKPVAKVVNDNAPQTAKEPDYLDIPAFLRKQAD
# notes: also called EcFtsZ; source: E. coli C41(DE3), purified (GTP- and calcium-induced precipitation, anion exchange)
# Biological target: the molecule itself
# Experiment: cryo-EM structure; EcFtsZ filaments, 0.5 mg/ml in 50 mM HEPES-KOH, 100 mM potassium acetate, 5 mM magnesium acetate, pH 7.7, 20°C, 0.1 mM GMPCPP; helical reconstruction in RELION
protein,measurement,value
B1,binding result,binds
